Source: paper PMC3216659 (Molecular Biology of the Cell, 2011)

B1: MBP–Duo1 complex (complex, S. cerevisiae)
chain 1: MSEDKAKLGTTRSATEYRLSIGSAPTSRRSSMGESSSLMKFADQEGLTSSVGEYNENTIQQLLLPKIRELSDSIITLDSNFTRLNFIHESLADLNESLGSLLYGIMSNSWCVEFSQAPHDIQDDLIAIKQLKSLEDEKNNLVMELSNMERGIKRKKDEQGENDLAKASQNKQFNQPLFPSSQVRKYRSYDNRDKRKPSKIGNNLQVENEEDYEDDTSSEASFVLNPTNIGMSKSSQGHVTKTTRLNNNTNSKLRRKSILHTIRNSIASGADLPIENDNVVNLGDLHPNNRISLGSGAARVVNGPVTKNRNSMFSGRAERKPTESRHSVAKKTEKKINTRPPFR
chain 2: MSEQSQLDDSTIDKLIPQIFNEMRSNLNNTTNKFPKSTGGGASDNISANSNSIRSFNSITTQSLLKESESLDKITAMIKNVTAALKNNLPVYVNQVHEVCKSTNSILDSWINIHSQAGYIHKLMSDQTYLKLINDRLHNENVNTNDEDGSTLHNVIALKKKEILDLRQKLENRKGEKDAAPAKPPNQGLNPRYGVQSGRRPVPSAGISNNGRVRKTHVPASKRPSGIPRVTNRWTKPTASSSRKMFR
chain 3: MDSASKEETLEKLDQEITVNLQKIDSNLSFCFHKITQDIIPHVATYSEICERIMDSTEWLGTMFQETGLVNLQANAAAPVGNAPVKSLVSNNVGIFPTSAEEASRQSQTDNGPNEADSAVHVNRDVHSMFNNDSIDDFHTANITSTGQILKLPDSSDEDTGSEAVPSREQTDLTGEGHGGADDEQDESTIQRQSRKRKISLLLQQQYGSSSSMVPSPIVPNKMRKQLAHEEHINNDGDNDDENSNNIESSPLKQGHHHPKGQADDNNEGPDEEESTKEVPKPGTIIHFSTNR
chain 4: MGESLDRCIDDINRAVDSMSTLYFKPPGIFHNAILQGASNKASIRKDITRLIKDCNHDEAYLLFKVNPEKQSVSRRDGKEGVFDYVIKRDTDMKRNRRLGRPGEKPIIHVPKEVYLNKDRLDLNNKRRRTATTSGGGLNGFIFDTDLIGSSVISNSSSGTFKALSAVFKDDPQIQRLLYALENGSVLMEEESNNQRRKTIFVEDFPTDLILKVMAEVTDLWPLTEFKQDYDQLYHNYEQLSSKLRFIKKEVLLQDDRLKTMSQYHPSSSHDVAKIIRKEKDEIRRLEMEIANLQE
chain 5: MTDALEQSVLALEGTVSVLKDSVESLKCANEPSTNLASTMLQTKRVFRLVPEYDVERSKLDLIEEVEPLVRTLGDKLRKSMGRMQRELDTLQQTYELNDLRLKKNISMDDDDALNSPDMGQEYEGRDADDVVMMASSTNEELEELKKLKEKKKQLENKLEILKQK
chain 6: MMASTSNDEEKLISTTDKYFIEQRNIVLQEINETMNSILNGLNGLNISLESSIAVGREFQSVSDLWKTLYDGLESLSDEAPIDEQPTLSQSKTK
chain 7: MDSIDEQIAIKRKELQSLQKITSLTDGLKIQLTELNEQIKEMGMNADSVAQLMNNWDSIINNISQASLGLLQYAEGDYEIGPWKDSKKKESEQSNETGLEAQENDKNDEDNDEDEDLVPLPETMVRIRVDGNE
chain 8: MEHNLSPLQQEVLDKYKQLSLDLKALDETIKELNYSQHRQQHSQQETVSPDEILQEMRDIEVKIGLVGTLLKGSVYSLILQRKQEQESLGSNSK
chain 9: MENPHEQVQANILSRIIGNVKRLNESVAILNQELVTINNRNKNLEIMGAICDNYHSSVQFNLEATNNKKPPL
chain 10: MNANKQRQYNQLAHELRELQTNLQETTKQLDIMSKQCNENLVGQLGKVHGSWLIGSYIYYMEQMLGKTQ
B2: MBP–Spc34 complex (complex, S. cerevisiae)
chain 1: MSEDKAKLGTTRSATEYRLSIGSAPTSRRSSMGESSSLMKFADQEGLTSSVGEYNENTIQQLLLPKIRELSDSIITLDSNFTRLNFIHESLADLNESLGSLLYGIMSNSWCVEFSQAPHDIQDDLIAIKQLKSLEDEKNNLVMELSNMERGIKRKKDEQGENDLAKASQNKQFNQPLFPSSQVRKYRSYDNRDKRKPSKIGNNLQVENEEDYEDDTSSEASFVLNPTNIGMSKSSQGHVTKTTRLNNNTNSKLRRKSILHTIRNSIASGADLPIENDNVVNLGDLHPNNRISLGSGAARVVNGPVTKNRNSMFSGRAERKPTESRHSVAKKTEKKINTRPPFR
chain 2: MSEQSQLDDSTIDKLIPQIFNEMRSNLNNTTNKFPKSTGGGASDNISANSNSIRSFNSITTQSLLKESESLDKITAMIKNVTAALKNNLPVYVNQVHEVCKSTNSILDSWINIHSQAGYIHKLMSDQTYLKLINDRLHNENVNTNDEDGSTLHNVIALKKKEILDLRQKLENRKGEKDAAPAKPPNQGLNPRYGVQSGRRPVPSAGISNNGRVRKTHVPASKRPSGIPRVTNRWTKPTASSSRKMFR
chain 3: MDSASKEETLEKLDQEITVNLQKIDSNLSFCFHKITQDIIPHVATYSEICERIMDSTEWLGTMFQETGLVNLQANAAAPVGNAPVKSLVSNNVGIFPTSAEEASRQSQTDNGPNEADSAVHVNRDVHSMFNNDSIDDFHTANITSTGQILKLPDSSDEDTGSEAVPSREQTDLTGEGHGGADDEQDESTIQRQSRKRKISLLLQQQYGSSSSMVPSPIVPNKMRKQLAHEEHINNDGDNDDENSNNIESSPLKQGHHHPKGQADDNNEGPDEEESTKEVPKPGTIIHFSTNR
chain 4: MGESLDRCIDDINRAVDSMSTLYFKPPGIFHNAILQGASNKASIRKDITRLIKDCNHDEAYLLFKVNPEKQSVSRRDGKEGVFDYVIKRDTDMKRNRRLGRPGEKPIIHVPKEVYLNKDRLDLNNKRRRTATTSGGGLNGFIFDTDLIGSSVISNSSSGTFKALSAVFKDDPQIQRLLYALENGSVLMEEESNNQRRKTIFVEDFPTDLILKVMAEVTDLWPLTEFKQDYDQLYHNYEQLSSKLRFIKKEVLLQDDRLKTMSQYHPSSSHDVAKIIRKEKDEIRRLEMEIANLQE
chain 5: MTDALEQSVLALEGTVSVLKDSVESLKCANEPSTNLASTMLQTKRVFRLVPEYDVERSKLDLIEEVEPLVRTLGDKLRKSMGRMQRELDTLQQTYELNDLRLKKNISMDDDDALNSPDMGQEYEGRDADDVVMMASSTNEELEELKKLKEKKKQLENKLEILKQK
chain 6: MMASTSNDEEKLISTTDKYFIEQRNIVLQEINETMNSILNGLNGLNISLESSIAVGREFQSVSDLWKTLYDGLESLSDEAPIDEQPTLSQSKTK
chain 7: MDSIDEQIAIKRKELQSLQKITSLTDGLKIQLTELNEQIKEMGMNADSVAQLMNNWDSIINNISQASLGLLQYAEGDYEIGPWKDSKKKESEQSNETGLEAQENDKNDEDNDEDEDLVPLPETMVRIRVDGNE
chain 8: MEHNLSPLQQEVLDKYKQLSLDLKALDETIKELNYSQHRQQHSQQETVSPDEILQEMRDIEVKIGLVGTLLKGSVYSLILQRKQEQESLGSNSK
chain 9: MENPHEQVQANILSRIIGNVKRLNESVAILNQELVTINNRNKNLEIMGAICDNYHSSVQFNLEATNNKKPPL
chain 10: MNANKQRQYNQLAHELRELQTNLQETTKQLDIMSKQCNENLVGQLGKVHGSWLIGSYIYYMEQMLGKTQ
B3: MBP–Spc19 complex (complex, S. cerevisiae)
chain 1: MSEDKAKLGTTRSATEYRLSIGSAPTSRRSSMGESSSLMKFADQEGLTSSVGEYNENTIQQLLLPKIRELSDSIITLDSNFTRLNFIHESLADLNESLGSLLYGIMSNSWCVEFSQAPHDIQDDLIAIKQLKSLEDEKNNLVMELSNMERGIKRKKDEQGENDLAKASQNKQFNQPLFPSSQVRKYRSYDNRDKRKPSKIGNNLQVENEEDYEDDTSSEASFVLNPTNIGMSKSSQGHVTKTTRLNNNTNSKLRRKSILHTIRNSIASGADLPIENDNVVNLGDLHPNNRISLGSGAARVVNGPVTKNRNSMFSGRAERKPTESRHSVAKKTEKKINTRPPFR
chain 2: MSEQSQLDDSTIDKLIPQIFNEMRSNLNNTTNKFPKSTGGGASDNISANSNSIRSFNSITTQSLLKESESLDKITAMIKNVTAALKNNLPVYVNQVHEVCKSTNSILDSWINIHSQAGYIHKLMSDQTYLKLINDRLHNENVNTNDEDGSTLHNVIALKKKEILDLRQKLENRKGEKDAAPAKPPNQGLNPRYGVQSGRRPVPSAGISNNGRVRKTHVPASKRPSGIPRVTNRWTKPTASSSRKMFR
chain 3: MDSASKEETLEKLDQEITVNLQKIDSNLSFCFHKITQDIIPHVATYSEICERIMDSTEWLGTMFQETGLVNLQANAAAPVGNAPVKSLVSNNVGIFPTSAEEASRQSQTDNGPNEADSAVHVNRDVHSMFNNDSIDDFHTANITSTGQILKLPDSSDEDTGSEAVPSREQTDLTGEGHGGADDEQDESTIQRQSRKRKISLLLQQQYGSSSSMVPSPIVPNKMRKQLAHEEHINNDGDNDDENSNNIESSPLKQGHHHPKGQADDNNEGPDEEESTKEVPKPGTIIHFSTNR
chain 4: MGESLDRCIDDINRAVDSMSTLYFKPPGIFHNAILQGASNKASIRKDITRLIKDCNHDEAYLLFKVNPEKQSVSRRDGKEGVFDYVIKRDTDMKRNRRLGRPGEKPIIHVPKEVYLNKDRLDLNNKRRRTATTSGGGLNGFIFDTDLIGSSVISNSSSGTFKALSAVFKDDPQIQRLLYALENGSVLMEEESNNQRRKTIFVEDFPTDLILKVMAEVTDLWPLTEFKQDYDQLYHNYEQLSSKLRFIKKEVLLQDDRLKTMSQYHPSSSHDVAKIIRKEKDEIRRLEMEIANLQE
chain 5: MTDALEQSVLALEGTVSVLKDSVESLKCANEPSTNLASTMLQTKRVFRLVPEYDVERSKLDLIEEVEPLVRTLGDKLRKSMGRMQRELDTLQQTYELNDLRLKKNISMDDDDALNSPDMGQEYEGRDADDVVMMASSTNEELEELKKLKEKKKQLENKLEILKQK
chain 6: MMASTSNDEEKLISTTDKYFIEQRNIVLQEINETMNSILNGLNGLNISLESSIAVGREFQSVSDLWKTLYDGLESLSDEAPIDEQPTLSQSKTK
chain 7: MDSIDEQIAIKRKELQSLQKITSLTDGLKIQLTELNEQIKEMGMNADSVAQLMNNWDSIINNISQASLGLLQYAEGDYEIGPWKDSKKKESEQSNETGLEAQENDKNDEDNDEDEDLVPLPETMVRIRVDGNE
chain 8: MEHNLSPLQQEVLDKYKQLSLDLKALDETIKELNYSQHRQQHSQQETVSPDEILQEMRDIEVKIGLVGTLLKGSVYSLILQRKQEQESLGSNSK
chain 9: MENPHEQVQANILSRIIGNVKRLNESVAILNQELVTINNRNKNLEIMGAICDNYHSSVQFNLEATNNKKPPL
chain 10: MNANKQRQYNQLAHELRELQTNLQETTKQLDIMSKQCNENLVGQLGKVHGSWLIGSYIYYMEQMLGKTQ

Biological target: the molecule itself
Test: negative-stain EM with 2D class averages

Stoichiometry N, 2:
B1, B2, B3
